Results on one molecule are retold here after patent US20250297004A1, “NECTIN-4 BINDING AGENTS” (INNATE PHARMA, priority 2022, published 2025).

In general, Kd refers to the concentration at which binding is half-saturated. Lower therefore signals a tighter complex.

The target of this assay is T1, human Nectin-4 (Homo sapiens, UniProt Q96NY8).
T1 sequence (Q96NY8 32-510): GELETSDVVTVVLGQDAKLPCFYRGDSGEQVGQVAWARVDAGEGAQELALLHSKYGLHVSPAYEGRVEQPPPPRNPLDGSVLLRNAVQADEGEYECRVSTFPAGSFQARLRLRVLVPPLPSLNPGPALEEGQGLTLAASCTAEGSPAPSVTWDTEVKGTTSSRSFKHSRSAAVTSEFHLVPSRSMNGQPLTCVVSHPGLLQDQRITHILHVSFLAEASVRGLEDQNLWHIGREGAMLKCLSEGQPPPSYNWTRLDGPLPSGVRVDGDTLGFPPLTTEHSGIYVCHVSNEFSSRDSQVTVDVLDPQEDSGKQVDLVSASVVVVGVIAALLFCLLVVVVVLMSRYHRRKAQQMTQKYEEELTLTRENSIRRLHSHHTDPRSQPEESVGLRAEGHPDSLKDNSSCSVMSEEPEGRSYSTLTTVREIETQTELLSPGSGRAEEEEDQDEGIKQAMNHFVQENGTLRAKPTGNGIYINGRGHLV
Briefly: Binding to human Nectin-4 by SPR. The conditions noted are these: for ka: SPR association constant; for kd: SPR dissociation constant; for Kd: SPR, human IgG1 isotype antibodies. In short, it runs like this:
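Humanized variants expressed and purified as human IgG1 and tested by SPR against human Nectin-4. Association (ka, 1/Ms) and dissociation (kd, 1/s) rate constants were fitted, and affinity is reported as KD (nM).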

B1: 5E7 (antibody, V domains shown)
VH: QVQLQQPGAELVKPGASVKLSCKASGYIFTSYWMHWVKQRPGQGLEWIGEIDPSDSYTNYNQKFKGKATLTLDKSSSTTYMQLSSLTSEDSAVYYCVRGYGNYGDYWGQGTTLTVSSASTKGP
VL: DVVMTQAAFSNPVTLGTSASISCRSSKSLLHSNGITYLYWYLQKPGQSPQLLIYQMSNLASGVPDRFSSSGSGTDFTLRISRVEAEDVGVYYCAQNLELPWTFGGGTKLEIKRTVAAP
With B1, for the setting “first set (Table 4)”, the “ka” value is 480000 ± 1e-05 M⁻¹ s⁻¹, the “kd” value amounted to 0.0027 ± 0.0003 s⁻¹ and the Kd was found to be 5.9 ± 1.2 nM. Further, where the note is “second set (Table 7)”, the “ka” value was determined as 480000 ± 1e-05 M⁻¹ s⁻¹, the “kd” value is 0.0027 ± 0.0003 s⁻¹ and the Kd worked out at 5.9 nM.
